Test results taken from PMC12416549 (2024).
Changes are numbered by the printed parent chain. Names and notes keep the numbering of the source.

T1: TNFR1 (Homo sapiens, UniProt P19438)
T1 chain: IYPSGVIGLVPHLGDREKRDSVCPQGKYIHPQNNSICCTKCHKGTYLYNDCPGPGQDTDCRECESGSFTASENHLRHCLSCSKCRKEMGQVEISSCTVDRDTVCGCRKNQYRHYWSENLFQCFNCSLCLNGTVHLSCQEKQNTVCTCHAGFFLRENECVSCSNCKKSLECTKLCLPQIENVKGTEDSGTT

B1: Q84W (designed binder)
chain: SMEEEVEKAAKEYEKKKKEAIEKHLEKLKAKDKEAAERFLKELEEAAKEYAKDEAKTMSEEEAKRRAKKYKEKVLLSELSEEEWKEIKEAEEKLVRTILKYVEEAAK
B2: E54R (designed binder)
chain: B1 chain with E54R, W84Q
B3: A30Q (designed binder)
chain: B1 chain with A30Q, W84Q
B4: K52F (designed binder)
chain: B1 chain with K52F, W84Q
B5: E5F (designed binder)
chain: B1 chain with E5F, W84Q
B6: A30K (designed binder)
chain: B1 chain with A30K, W84Q
B7: Y101V (designed binder)
chain: B1 chain with W84Q, Y101V
B8: E37Q (designed binder)
chain: B1 chain with E37Q, W84Q
B9: E83V (designed binder)
chain: B1 chain with E83V, W84Q
B10: E26I (designed binder)
chain: B1 chain with E26I, W84Q
B11: E34K (designed binder)
chain: B1 chain with E34K, W84Q
B12: K18V (designed binder)
chain: B1 chain with K18V, W84Q
B13: A105I (designed binder)
chain: B1 chain with W84Q, A105I
B14: E89K (designed binder)
chain: B1 chain with W84Q, E89K
B15: K48T (designed binder)
chain: B1 chain with K48T, W84Q
B16: K29A (designed binder)
chain: B1 chain with K29A, W84Q
B17: A20Q (designed binder)
chain: B1 chain with A20Q, W84Q
B18: Y70A (designed binder)
chain: B1 chain with Y70A, W84Q
B19: A63N (designed binder)
chain: B1 chain with A63N, W84Q
B20: A10L (designed binder)
chain: B1 chain with A10L, W84Q
B21: A63D (designed binder)
chain: B1 chain with A63D, W84Q
B22: E78P (designed binder)
chain: B1 chain with E78P, W84Q
B23: K8Y (designed binder)
chain: B1 chain with K8Y, W84Q
B24: E54P (designed binder)
chain: B1 chain with E54P, W84Q
B25: I87T (designed binder)
chain: B1 chain with W84Q, I87T
B26: E37F (designed binder)
chain: B1 chain with E37F, W84Q
B27: K69M (designed binder)
chain: B1 chain with K69M, W84Q
B28: K107I (designed binder)
chain: B1 chain with W84Q, K107I
B29: E12N (designed binder)
chain: B1 chain with E12N, W84Q
B30: Q84Y (designed binder)
chain: B1 chain with W84Y
B31: I21D (designed binder)
chain: B1 chain with I21D, W84Q
B32: K100T (designed binder)
chain: B1 chain with W84Q, K100T
B33: Y50T (designed binder)
chain: B1 chain with Y50T, W84Q
B34: E54L (designed binder)
chain: B1 chain with E54L, W84Q
B35: A51N (designed binder)
chain: B1 chain with A51N, W84Q
B36: V102D (designed binder)
chain: B1 chain with W84Q, V102D
B37: K88A (designed binder)
chain: B1 chain with W84Q, K88A
B38: A9P (designed binder)
chain: B1 chain with A9P, W84Q
B39: K107L (designed binder)
chain: B1 chain with W84Q, K107L
B40: D32S (designed binder)
chain: B1 chain with D32S, W84Q
B41: K71L (designed binder)
chain: B1 chain with K71L, W84Q
B42: K27R (designed binder)
chain: B1 chain with K27R, W84Q
B43: E45Y (designed binder)
chain: B1 chain with E45Y, W84Q
B44: E19M (designed binder)
chain: B1 chain with E19M, W84Q
B45: A90F (designed binder)
chain: B1 chain with W84Q, A90F
B46: I87P (designed binder)
chain: B1 chain with W84Q, I87P
B47: L28S (designed binder)
chain: B1 chain with L28S, W84Q
B48: E7G (designed binder)
chain: B1 chain with E7G, W84Q
B49: E12I (designed binder)
chain: B1 chain with E12I, W84Q
B50: E49S (designed binder)
chain: B1 chain with E49S, W84Q
B51: E26G (designed binder)
chain: B1 chain with E26G, W84Q
B52: Y101H (designed binder)
chain: B1 chain with W84Q, Y101H
B53: A20S (designed binder)
chain: B1 chain with A20S, W84Q
B54: K69H (designed binder)
chain: B1 chain with K69H, W84Q
B55: K52T (designed binder)
chain: B1 chain with K52T, W84Q
B56: K73V (designed binder)
chain: B1 chain with K73V, W84Q
B57: A90D (designed binder)
chain: B1 chain with W84Q, A90D
B58: K68Q (designed binder)
chain: B1 chain with K68Q, W84Q
B59: A47I (designed binder)
chain: B1 chain with A47I, W84Q

Target: T1, TNFR1
Test: yeast display SC50

apparent Kd (screen) [nM] | Binder
12.5 | B1
18.3 | B2
0.593 | B3
1.05 | B4
1.05 | B5
0.956 | B6
0.446 | B7
0.539 | B8
0.446 | B9
1.16 | B10
0.539 | B11
1.27 | B12
1.69 | B13
2.73 | B14
0.49 | B15
0.446 | B16
1.69 | B17
4.83 | B18
6.43 | B19
0.956 | B20

apparent Kd (screen) [nM] | Binder
10.4 | B21
2.73 | B22
0.956 | B23
7.07 | B24
12.5 | B25
0.49 | B26
0.49 | B27
1.86 | B28
1.16 | B29
13.8 | B30
10.4 | B31
0.869 | B32
1.16 | B33
4.39 | B34
12.5 | B35
0.539 | B36
0.405 | B37
13.8 | B38
2.73 | B39
0.446 | B40

apparent Kd (screen) [nM] | Binder
0.653 | B41
0.869 | B42
2.73 | B43
0.446 | B44
0.49 | B45
22.2 | B46
0.49 | B47
3 | B48
1.05 | B49
1.27 | B50
0.593 | B51
0.49 | B52
0.446 | B53
0.49 | B54
0.446 | B55
10.4 | B56
0.446 | B57
0.653 | B58
0.49 | B59
